The record followed here is US5876948 (The Children's Medical Center Corporation, dated 1999).

This experiment addresses β-amyloid peptide β1-40 (polypeptide corresponding to the first 40 amino acids of β-amyloid). Briefly: cell-based or functional assay.

Bridge positions count the residues as written; N and C are the ends. Square brackets hold non-standard residues; d marks the D form. Ends that are not written are not given here. NMeF = CN[C@@H](Cc1ccccc1)C(=O)O; pGlu = O=C1CC[C@@H](C(=O)O)N1; Sar = CNCC(=O)O

In the case of RPKPQQFFGLM-OMe [Sub P, Methyl Ester], the “Therapeutic Efficacy (%)” value amounted to 71%.
For the molecule RPKPQQF [Substance P (1-7)], the “Therapeutic Efficacy (%)” value was 82%.
Take RPKPQQFFGLM-NH2 [Substance P]: the “Therapeutic Efficacy (%)” value is 100%.
As for FFGLM [Sub P (7-11)], the “Therapeutic Efficacy (%)” value was found to be 41%.
Take QFFGLM [Sub P (6-11)]: the “Therapeutic Efficacy (%)” value was 65%.
As for [pGlu]QF[NMeF][Sar]LM (ends and bridges not checked) [[pGlu^5, Me-Phe^8, Sar^9]-Sub P (5-11)], the “Therapeutic Efficacy (%)” value was found to be 41%.
For the molecule RPKPQQFFGLM-OH [Sub P, Free Acid], the “Therapeutic Efficacy (%)” value stood at 53%.
In the case of RPKPQQFFGLX (nor-leucine at position 11) [[Nle^11]-Sub P] it was 77%; in that of RPCPQCFYPLM (disulfide 3-6; ends not checked) [[Cys^3,6, Tyr^8, Pro^9]-Sub P], 53%.
